Target: AbaAlkX Y300F (Acinetobacter baumannii, UniProt A0A0D5YK62 1-385, Y300F;V301L)
Assay: EMSA; 10 nM DNA; binding unaffected relative to WT
Conditions: protein: recombinant; tags: His6-SUMO tag cleaved (3C); label: Cy5 on strand 1; FAM on strand 2 (both printed at 5' end); blunt; covalently crosslinked strands

B1: 2F-NM8-ICL DNA (dsDNA)
DNA 1: TTTATTTTTATTTGACTTTTATTTTT
DNA 2: AAAAATAAAAGTCAAATAAAAATAAA
  binding result: binds
